Experimental findings from publication PMC8796304 (ACS Central Science, 2021) are described below.

Test [1] has as its target T1, Frizzled-7/Fc chimera protein (Homo sapiens, UniProt O75084). Briefly: BLI. A general note: In BLI a coated tip is dipped into the sample, and binding shifts an interference pattern.
Test [2] deals with Frizzled 2 extracellular domain (Homo sapiens (assumed), UniProt Q14332). Briefly: ELISA. On the technique in general: In an ELISA, binding on a coated surface is turned into a signal by an enzyme label.
Sequence of Frizzled 2 extracellular domain (Q14332 whole entry, looked up, the tested form may be a part): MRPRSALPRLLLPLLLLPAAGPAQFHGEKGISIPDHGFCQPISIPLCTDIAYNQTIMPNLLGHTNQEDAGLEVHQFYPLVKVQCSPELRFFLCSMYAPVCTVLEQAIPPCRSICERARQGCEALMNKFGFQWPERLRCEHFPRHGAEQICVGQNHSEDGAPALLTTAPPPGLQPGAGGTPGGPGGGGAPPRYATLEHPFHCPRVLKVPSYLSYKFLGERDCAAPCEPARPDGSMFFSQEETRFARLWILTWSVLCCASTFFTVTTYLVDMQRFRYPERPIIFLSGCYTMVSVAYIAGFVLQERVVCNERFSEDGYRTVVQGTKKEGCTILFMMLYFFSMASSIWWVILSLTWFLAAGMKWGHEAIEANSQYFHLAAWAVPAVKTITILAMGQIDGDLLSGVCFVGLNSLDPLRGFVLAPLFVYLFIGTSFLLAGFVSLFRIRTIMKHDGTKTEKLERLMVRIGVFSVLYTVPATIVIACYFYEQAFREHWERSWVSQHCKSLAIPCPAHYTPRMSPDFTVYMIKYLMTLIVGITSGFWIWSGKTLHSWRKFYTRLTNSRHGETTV
In test [3] the target is Frizzled 1 extracellular domain (Homo sapiens (assumed), UniProt Q9UP38). Briefly: ELISA.
Sequence of Frizzled 1 extracellular domain (Q9UP38 whole entry, looked up, the tested form may be a part): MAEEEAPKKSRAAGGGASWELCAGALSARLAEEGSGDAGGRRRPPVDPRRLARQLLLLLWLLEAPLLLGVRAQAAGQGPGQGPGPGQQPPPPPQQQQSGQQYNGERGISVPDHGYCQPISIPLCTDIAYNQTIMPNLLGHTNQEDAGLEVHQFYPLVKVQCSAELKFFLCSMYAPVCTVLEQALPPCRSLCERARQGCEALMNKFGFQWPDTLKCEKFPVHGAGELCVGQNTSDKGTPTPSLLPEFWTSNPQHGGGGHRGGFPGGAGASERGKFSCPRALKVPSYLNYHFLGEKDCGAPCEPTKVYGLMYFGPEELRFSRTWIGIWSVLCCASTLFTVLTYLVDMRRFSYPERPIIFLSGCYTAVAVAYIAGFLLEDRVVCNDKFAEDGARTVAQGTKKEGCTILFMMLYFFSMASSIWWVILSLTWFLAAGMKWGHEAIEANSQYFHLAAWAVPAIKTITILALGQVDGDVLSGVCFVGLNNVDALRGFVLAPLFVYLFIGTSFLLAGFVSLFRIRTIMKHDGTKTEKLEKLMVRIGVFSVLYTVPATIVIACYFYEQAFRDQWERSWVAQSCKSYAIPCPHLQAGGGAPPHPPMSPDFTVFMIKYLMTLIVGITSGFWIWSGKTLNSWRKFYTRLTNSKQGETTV
The target in test [4] is T1, Frizzled-7/Fc chimera protein. Briefly: ELISA.
Test [5] addresses T2, GPI-anchored myc peptide tag (Homo sapiens c-Myc epitope tag, UniProt P01106, also: GPI anchor).
T2 chain: EQKLISEEDL
Briefly: flow cytometry on cells. In general terms: Flow cytometry measures light scatter and fluorescence of single cells or particles in a stream.

The target in test [6] is human Frizzled-7 on Fzd7+myc+ CHO cells (Homo sapiens, UniProt O75084). Briefly: flow cytometry on cells.

Broadly, the Kd is the concentration at which binding is half-saturated. A lower Kd goes with tighter binding. The EC50 is the midpoint of the concentration-response curve. High values mean a less potent agent, low ones a more potent agent.

Positions count from the first letter of the chain named. Ends that are not written are not given here.

B1: ML7 (antibody, V domains shown)
VH: EVQLVESGGGLVQPGGSLRLSCAASGFNIYYYSMHWVRQAPGKGLEWVASISSYYGYTYYADSVKGRFTISADTSKNTAYLQMNSLRAEDTAVYYCARSWGYGGSSSYALDYWGQGTLVTVSS
VL: DIQMTQSPSSLSASVGDRVTITCRASQSVSSAVAWYQQKPGKAPKLLIYSASSLYSGVPSRFSGSRSGTDFTLTISSLQPEDFATYYCQQVGGGPITFGQGTKVEIK
In test [1], B1 gave a Kd of 0.448 ± 0.053 nM. For the same molecule, the values for the binding result in test [2], in test [3] and in test [5] were “binds”, “binds” and “no binding (tested: 50 nM)”, respectively. The EC50 in test [4] and in test [6] was less than 10 nM throughout.

B2: ML9 (antibody, V domains shown)
VH: B1 VH
VL: DIQMTQSPSSLSASVGDRVTITCRASQSVSSAVAWYQQKPGKAPKLLIYSASSLYSGVPSRFSGSRSGTDFTLTISSLQPEDFATYYCQQGWWGYYSLITFGQGTKVEIK
In turn, B2 came in with a Kd in test [1] of 0.292 ± 0.066 nM. Also, the binding result in test [5] is listed as “no binding (tested: 50 nM)”.

B3: ML8 (antibody, V domains shown)
VH: B1 VH
VL: B2 VL with G91Y, W92A, W93Y, G94P, Y95V, S97F
B3 gave a dissociation constant Kd in test [1] of 4.98 ± 0.28 nM. Further, the EC50 in test [4] and in test [6] was less than 10 nM each time. Besides, the binding result in test [5] was “no binding (tested: 50 nM)”.
